Data as given in PMC9352680, “A comprehensive thermodynamic model for RNA binding by the Saccharomyces cerevisiae Pumilio protein PUF4”.

Columns and labels:
[1] = biological target: T1, PUF4 RNA-binding domain (Pumilio homology domain) (Saccharomyces cerevisiae) (UniProt P25339); assay: RNA-MaP; settings: RNA-MaP: 20 mM Na-HEPES pH 7.4, 0.1% Tween-20, 5% glycerol, 0.1 mg/mL BSA, 2 mM DTT, low salt 0.75 mM MgCl2 + 30 mM KOAc (model data; high salt 2 mM MgCl2 + …)
T1 sequence: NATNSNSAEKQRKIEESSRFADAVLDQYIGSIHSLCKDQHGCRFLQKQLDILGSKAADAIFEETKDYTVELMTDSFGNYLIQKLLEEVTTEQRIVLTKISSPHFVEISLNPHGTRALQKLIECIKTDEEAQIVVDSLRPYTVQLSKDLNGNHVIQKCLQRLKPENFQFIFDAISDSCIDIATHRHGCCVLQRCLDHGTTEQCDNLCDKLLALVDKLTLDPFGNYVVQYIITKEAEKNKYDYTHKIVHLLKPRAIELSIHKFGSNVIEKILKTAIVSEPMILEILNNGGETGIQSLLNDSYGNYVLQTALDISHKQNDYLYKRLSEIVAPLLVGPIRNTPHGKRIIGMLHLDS

[2] = biological target: T2, PUF4 RNA-binding domain (Saccharomyces cerevisiae, UniProt P25339 537-888); assay: Mg; RNA-MaP; 20 mM Na-HEPES pH 7.4, 30 mM KOAc, 0.75 mM MgCl2, 0.1% Tween-20, 5% glycerol, 0.1 mg/mL BSA, 2 mM DTT; 25 C; 0.0125-409.6 nM protein; settings: tags: N-His6-TEV cleaved; C-SNAP kept, Cy3B-labelled; label: tethered on chip by stalled RNA polymerase
T2 sequence: T1 sequence

[3] = biological target: T3, PUF4 RNA-binding domain (Pumilio homology domain) (Saccharomyces cerevisiae, UniProt P25339 537-888); assay: RNA-MaP; ddG 0.613; RNA-MaP: 20 mM Na-HEPES pH 7.4, 0.1% Tween-20, 5% glycerol, 0.1 mg/mL BSA, 2 mM DTT, low salt 0.75 mM MgCl2 + 30 mM KOAc (model data; high salt 2 mM MgCl2 + 100 mM KOAc), 25 C; settings: protein: recombinant; tags: C-terminal SNAP tag, Cy3B-labeled; N-terminal His tag removed with TEV; label: array RNA; single-stranded
T3 sequence: T1 sequence

[4] = biological target: T3, PUF4 RNA-binding domain (Pumilio …); assay: RNA-MaP; ddG 1.827; RNA-MaP: 20 mM Na-HEPES pH 7.4, 0.1% Tween-20, 5% glycerol, 0.1 mg/mL BSA, 2 mM DTT, low salt 0.75 mM MgCl2 + 30 mM KOAc (model data; high salt 2 mM MgCl2 + 100 mM KOAc), 25 C; settings: protein: recombinant; tags: C-terminal SNAP tag, Cy3B-labeled; N-terminal His tag removed with TEV; label: array RNA; single-stranded
[5] = biological target: T3, PUF4 RNA-binding domain (Pumilio …); assay: RNA-MaP; ddG 1.315; RNA-MaP: 20 mM Na-HEPES pH 7.4, 0.1% Tween-20, 5% glycerol, 0.1 mg/mL BSA, 2 mM DTT, low salt 0.75 mM MgCl2 + 30 mM KOAc (model data; high salt 2 mM MgCl2 + 100 mM KOAc), 25 C; settings: protein: recombinant; tags: C-terminal SNAP tag, Cy3B-labeled; N-terminal His tag removed with TEV; label: array RNA; single-stranded
[6] = biological target: T3, PUF4 RNA-binding domain (Pumilio …); assay: RNA-MaP; ddG 1.467; RNA-MaP: 20 mM Na-HEPES pH 7.4, 0.1% Tween-20, 5% glycerol, 0.1 mg/mL BSA, 2 mM DTT, low salt 0.75 mM MgCl2 + 30 mM KOAc (model data; high salt 2 mM MgCl2 + 100 mM KOAc), 25 C; settings: protein: recombinant; tags: C-terminal SNAP tag, Cy3B-labeled; N-terminal His tag removed with TEV; label: array RNA; single-stranded
[7] = biological target: T3, PUF4 RNA-binding domain (Pumilio …); assay: RNA-MaP; ddG 2.995; RNA-MaP: 20 mM Na-HEPES pH 7.4, 0.1% Tween-20, 5% glycerol, 0.1 mg/mL BSA, 2 mM DTT, low salt 0.75 mM MgCl2 + 30 mM KOAc (model data; high salt 2 mM MgCl2 + 100 mM KOAc), 25 C; settings: protein: recombinant; tags: C-terminal SNAP tag, Cy3B-labeled; N-terminal His tag removed with TEV; label: array RNA; single-stranded
[8] = biological target: T3, PUF4 RNA-binding domain (Pumilio …); assay: RNA-MaP; ddG 0.390; RNA-MaP: 20 mM Na-HEPES pH 7.4, 0.1% Tween-20, 5% glycerol, 0.1 mg/mL BSA, 2 mM DTT, low salt 0.75 mM MgCl2 + 30 mM KOAc (model data; high salt 2 mM MgCl2 + 100 mM KOAc), 25 C; settings: protein: recombinant; tags: C-terminal SNAP tag, Cy3B-labeled; N-terminal His tag removed with TEV; label: array RNA; single-stranded
[9] = biological target: T3, PUF4 RNA-binding domain (Pumilio …); assay: RNA-MaP; ddG 3.526; RNA-MaP: 20 mM Na-HEPES pH 7.4, 0.1% Tween-20, 5% glycerol, 0.1 mg/mL BSA, 2 mM DTT, low salt 0.75 mM MgCl2 + 30 mM KOAc (model data; high salt 2 mM MgCl2 + 100 mM KOAc), 25 C; settings: protein: recombinant; tags: C-terminal SNAP tag, Cy3B-labeled; N-terminal His tag removed with TEV; label: array RNA; single-stranded
[10] = biological target: T3, PUF4 RNA-binding domain (Pumilio …); assay: RNA-MaP; ddG 1.591; RNA-MaP: 20 mM Na-HEPES pH 7.4, 0.1% Tween-20, 5% glycerol, 0.1 mg/mL BSA, 2 mM DTT, low salt 0.75 mM MgCl2 + 30 mM KOAc (model data; high salt 2 mM MgCl2 + 100 mM KOAc), 25 C; settings: protein: recombinant; tags: C-terminal SNAP tag, Cy3B-labeled; N-terminal His tag removed with TEV; label: array RNA; single-stranded
[11] = biological target: T3, PUF4 RNA-binding domain (Pumilio …); assay: RNA-MaP; ddG 1.641; RNA-MaP: 20 mM Na-HEPES pH 7.4, 0.1% Tween-20, 5% glycerol, 0.1 mg/mL BSA, 2 mM DTT, low salt 0.75 mM MgCl2 + 30 mM KOAc (model data; high salt 2 mM MgCl2 + 100 mM KOAc), 25 C; settings: protein: recombinant; tags: C-terminal SNAP tag, Cy3B-labeled; N-terminal His tag removed with TEV; label: array RNA; single-stranded
[12] = biological target: T3, PUF4 RNA-binding domain (Pumilio …); assay: RNA-MaP; ddG 0.961; RNA-MaP: 20 mM Na-HEPES pH 7.4, 0.1% Tween-20, 5% glycerol, 0.1 mg/mL BSA, 2 mM DTT, low salt 0.75 mM MgCl2 + 30 mM KOAc (model data; high salt 2 mM MgCl2 + 100 mM KOAc), 25 C; settings: protein: recombinant; tags: C-terminal SNAP tag, Cy3B-labeled; N-terminal His tag removed with TEV; label: array RNA; single-stranded
[13] = biological target: T3, PUF4 RNA-binding domain (Pumilio …); assay: RNA-MaP; ddG 3.166; RNA-MaP: 20 mM Na-HEPES pH 7.4, 0.1% Tween-20, 5% glycerol, 0.1 mg/mL BSA, 2 mM DTT, low salt 0.75 mM MgCl2 + 30 mM KOAc (model data; high salt 2 mM MgCl2 + 100 mM KOAc), 25 C; settings: protein: recombinant; tags: C-terminal SNAP tag, Cy3B-labeled; N-terminal His tag removed with TEV; label: array RNA; single-stranded

UGUAUCGCAC in S1b scaffold
Kd [1]: > 2400 nM

UGUAUAUUAU in S1a scaffold
Kd [1]: 0.88 nM

B1: Ib_S3_P3E.1_K3.1_C3.1_H3.1_[G2T]_A3.1_[A6T]_F3.1_T3.1 (ssRNA)
RNA: ACAAACUUUAUUUAACAAAC
Kd [2]: > 2300 nM

B2: S1a K4.1 T8C (ssRNA)
RNA: UCUCUUUGUAUAUCAUCUCUU
Kd [3]: -11 ± 0.259 kcal/mol (dG=RTlnKd)

B3: S1a K3.1 A6G (ssRNA)
RNA: UCUCUUUGUAUGUAUCUCUU
Kd [4]: -9.79 ± 0.309 kcal/mol (dG=RTlnKd)

B4: Ib_S3_P4E.1_K4.1_C4.1_H4.1_[T1G]_A4.1_F4.1_[T8G]_T4.1 (ssRNA)
RNA: ACAAACGGUAUAUGAACAAAC
Kd [2]: > 2300 nM

B5: Ib_S3_P4E.1_K4.1_C4.1_H4.1_[T3C]_A4.1_F4.1_[A9T]_T4.1 (ssRNA)
RNA: ACAAACUGCAUAUUUACAAAC
Kd [2]: 839 nM

B6: Ib_S3_P4E.1_K4.1_C4.1_H4.1_[T1A]_A4.1_F4.1_[T8C]_T4.1 (ssRNA)
RNA: ACAAACAGUAUAUCAACAAAC
Kd [2]: > 2300 nM

B7: Ib_S3_P4E.1_K4.1_C4.1_H4.1_[T1A]_[G2C]_A4.1_F4.1_T4.1 (ssRNA)
RNA: ACAAACACUAUAUUAACAAAC
Kd [2]: > 2300 nM

B8: Ib_S3_P4E.1_K4.1_C4.1_H4.1_[T1A]_A4.1_F4.1_[T8A]_T4.1 (ssRNA)
RNA: ACAAACAGUAUAUAAACAAAC
Kd [2]: > 2300 nM

B9: S1a K3.1 T5A (ssRNA)
RNA: UCUCUUUGUAAAUAUCUCUU
Kd [5]: -10.3 ± 0.252 kcal/mol (dG=RTlnKd)

B10: S1a K3.1 A6T (ssRNA)
RNA: UCUCUUUGUAUUUAUCUCUU
Kd [6]: -10.2 ± 0.227 kcal/mol (dG=RTlnKd)

B11: S1a K3.1 A4T (ssRNA)
RNA: UCUCUUUGUUUAUAUCUCUU
Kd [7]: -8.62 ± 0.651 kcal/mol (dG=RTlnKd)

B12: S1a K3.1 T5C (ssRNA)
RNA: UCUCUUUGUACAUAUCUCUU
Kd [8]: -11.2 ± 0.37 kcal/mol (dG=RTlnKd)

B13: Ib_S3_P3E.1_K3.1_C3.1_H3.1_[T3G]_A3.1_[T5G]_F3.1_T3.1 (ssRNA)
RNA: ACAAACUGGAGAUAACAAAC
Kd [2]: > 2300 nM

B14: Ib_S3_P4E.1_K4.1_C4.1_H4.1_[T3C]_A4.1_F4.1_[A9C]_T4.1 (ssRNA)
RNA: ACAAACUGCAUAUUCACAAAC
Kd [2]: > 2300 nM

B15: S1a K3.1 A4C (ssRNA)
RNA: UCUCUUUGUCUAUAUCUCUU
Kd [9]: -8.09 ± 0.737 kcal/mol (dG=RTlnKd)

B16: Ib_S3_P3E.1_K3.1_C3.1_H3.1_[T3G]_A3.1_[A6T]_F3.1_T3.1 (ssRNA)
RNA: ACAAACUGGAUUUAACAAAC
Kd [2]: > 2300 nM

B17: Ib_S3_P4E.1_K4.1_C4.1_H4.1_[G2T]_A4.1_F4.1_[A9C]_T4.1 (ssRNA)
RNA: ACAAACUUUAUAUUCACAAAC
Kd [2]: > 2300 nM

B18: Ia_S2_P5E.1_K5.1_C5.1_H5.1_A5.1_[T5C]_F5.1_T5.1 (ssRNA)
RNA: UUUGAUUAAUAUGAUAUCGUUCUUUCUUGUACUAUUAUUCUUUCUCGAUAUCAUAUUAAUCUUU
Kd [2]: 1.48 nM

B19: Ib_S3_P3E.1_K3.1_C3.1_H3.1_[T3A]_A3.1_[A6C]_F3.1_T3.1 (ssRNA)
RNA: ACAAACUGAAUCUAACAAAC
Kd [2]: > 2300 nM

B20: Ib_S3_P3E.1_K3.1_C3.1_H3.1_[A4C]_A3.1_[A6T]_F3.1_T3.1 (ssRNA)
RNA: ACAAACUGUCUUUAACAAAC
Kd [2]: > 2300 nM

B21: Ib_S3_P4E.1_K4.1_C4.1_H4.1_[G2C]_A4.1_F4.1_[A9C]_T4.1 (ssRNA)
RNA: ACAAACUCUAUAUUCACAAAC
Kd [2]: > 2300 nM

B22: S1a K3.1 T7C (ssRNA)
RNA: UCUCUUUGUAUACAUCUCUU
Kd [10]: -10 ± 0.544 kcal/mol (dG=RTlnKd)

B23: Ib_S3_P4E.1_K4.1_C4.1_H4.1_[G2A]_A4.1_F4.1_[A9C]_T4.1 (ssRNA)
RNA: ACAAACUAUAUAUUCACAAAC
Kd [2]: 1480 nM

B24: S1a K3.1 A6C (ssRNA)
RNA: UCUCUUUGUAUCUAUCUCUU
Kd [11]: -9.98 ± 0.415 kcal/mol (dG=RTlnKd)

B25: S1a K4.1 T8G (ssRNA)
RNA: UCUCUUUGUAUAUGAUCUCUU
Kd [12]: -10.7 ± 0.299 kcal/mol (dG=RTlnKd)

B26: S1a K3.1 G2A (ssRNA)
RNA: UCUCUUUAUAUAUAUCUCUU
Kd [13]: -8.45 ± 0.403 kcal/mol (dG=RTlnKd)

B27: Ib_S3_P4E.1_K4.1_C4.1_H4.1_[T1G]_A4.1_F4.1_[T8A]_T4.1 (ssRNA)
RNA: ACAAACGGUAUAUAAACAAAC
Kd [2]: 1980 nM

B28: Ib_S3_P4E.1_K4.1_C4.1_H4.1_[G2C]_A4.1_F4.1_[T8C]_T4.1 (ssRNA)
RNA: ACAAACUCUAUAUCAACAAAC
Kd [2]: > 2300 nM

B29: Ib_S3_P4E.1_K4.1_C4.1_H4.1_[T1C]_A4.1_F4.1_[A9C]_T4.1 (ssRNA)
RNA: ACAAACCGUAUAUUCACAAAC
Kd [2]: > 2300 nM

B30: Ib_S3_P3E.1_K3.1_C3.1_H3.1_[T3C]_A3.1_[T5G]_F3.1_T3.1 (ssRNA)
RNA: ACAAACUGCAGAUAACAAAC
Kd [2]: > 2300 nM

B31: Ib_S3_P3E.1_K3.1_C3.1_H3.1_[G2A]_A3.1_[A6T]_F3.1_T3.1 (ssRNA)
RNA: ACAAACUAUAUUUAACAAAC
Kd [2]: > 2300 nM
